Consider ten molecules from patent publication US20060051832A1, “Modified sarcosine oxidase, process for producing the same and reagent composition using the same” (Toyo Boseki Kabushiki Kaisha, priority 2002, published 2006).

Data set [1] concerns Arthrobacter sp. TE1826 modified sarcosine oxidases of Example 3B (SEQ ID NO:1 variants). Briefly: Km of modified sarcosine oxidases of Example 3B compared with unmodified. It counts as biochemical. Particulars: modified vs unmodified; nearly equal to or within 1.5 times. How it is done:
(§1) • 100 mM Tris-HCl buffer (pH 8.0) (containing 200 mM sarcosine and 0.1% Triton X-100) • 0.1% 4-aminoantipyrine • 0.1% phenol • 25 U/mL peroxidase <Measurement Condition>
(§2) A reaction mixture is prepared by mixing the above Tris-HCl buffer, 4-aminoantipyrine solution, phenol solution and peroxidase solution at a ratio of 5:1:2:2. The reaction mixture (1 mL) is taken to a test tube, preliminarily warmed at 37° C. for about 5 min, and 0.05 mL of an enzyme solution is added to start the reaction. The reaction at 37° C. is performed accurately for 10 min, then 2.0 mL of an aqueous solution of 0.25% SDS is added to stop the reaction, and an absorbance at 500 nm of this solution is measured. In a blind test, distilled water instead of the enzyme solution is added to the reagent mixture, and the same manipulation is followed to measure the absorbance. […] The reactivity to proline was measured as a relative ratio of activities when sarcosine in the above reagent was replaced by L-proline at the same concentration.
(§3) Various sarcosine oxidases obtained in Example 3B and Comparative Example 1 were evaluated.
(§4) Action on proline was calculated from a relative ratio (%) of the enzyme activity using L-proline as the substrate to the enzyme activity suing sarcosine as the substrate in the above activity measurement method. […]

Substrate in data set [2]: CNCC(=O)O
The experiment in a line: Km of modified sarcosine oxidase SAOM5B. It counts as biochemical, Arthrobacter sp. TE1826. Particulars: other: SAOM5B, 37° C., pH 8.0. How it is done:
as §1
as §2, with “concentration. […]” for “concentration.”
as §3, §4

Substrate in data set [3]: CNCC(=O)O
The experiment in a line: Km of modified sarcosine oxidase SAOM2B. It counts as biochemical, Arthrobacter sp. TE1826. Particulars: other: SAOM2B, V94G, 37° C., pH 8.0. The procedure: as §1
as §2, with “concentration. […]” for “concentration.”
as §3, §4

Substrate in data set [4]: CNCC(=O)O
Briefly: Km of unmodified sarcosine oxidase (control, Comparative Example 1). It counts as biochemical, Arthrobacter sp. TE1826. Particulars: other: unmodified (control), 37° C., pH 8.0. The procedure: as §1
as §2, with “concentration. […]” for “concentration.”
as §3, §4

Substrate in data set [5]: CNCC(=O)O
Briefly: Km of modified sarcosine oxidase SAOM3B. The format is biochemical, Arthrobacter sp. TE1826. Particulars: other: SAOM3B, K322R, 37° C., pH 8.0. The procedure: as §1
as §2, with “concentration. […]” for “concentration.”
as §3, §4

Substrate in data set [6]: CNCC(=O)O
Briefly: Km of modified sarcosine oxidase SAOM1B. It counts as biochemical, Arthrobacter sp. TE1826. Particulars: other: SAOM1B, K89R, 37° C., pH 8.0. The procedure: as §1
as §2, with “concentration. […]” for “concentration.”
as §3, §4

Substrate in data set [7]: CNCC(=O)O
Briefly: Km of modified sarcosine oxidase SAOM7B. It counts as biochemical, Arthrobacter sp. TE1826. Particulars: other: SAOM7B, 37° C., pH 8.0. How it is done: as §1
as §2, with “concentration. […]” for “concentration.”
as §3, §4

Substrate in data set [8]: CNCC(=O)O
The experiment in a line: Km of modified sarcosine oxidase SAOM8B. It counts as biochemical, Arthrobacter sp. TE1826. Particulars: other: SAOM8B, 37° C., pH 8.0. The procedure:
as §1
as §2, with “concentration. […]” for “concentration.”
as §3, §4

Substrate in data set [9]: CNCC(=O)O
Briefly: Km of modified sarcosine oxidase SAOM4B. The format is biochemical, Arthrobacter sp. TE1826. Particulars: other: SAOM4B, 37° C., pH 8.0. How it is done:
as §1
as §2, with “concentration. […]” for “concentration.”
as §3, §4

Substrate in data set [10]: CNCC(=O)O
Briefly: Km of modified sarcosine oxidase SAOM6B. It counts as biochemical, Arthrobacter sp. TE1826. Particulars: other: SAOM6B, 37° C., pH 8.0. The procedure: as §1
as §2, with “concentration. […]” for “concentration.”
as §3, §4

Positions count from the first letter of the chain named. Names and notes keep the numbering of the source.

With `CNCC(=O)O` [sarcosine], in data set [1], the “Km value for sarcosine relative to the Km value of the unmodified sarcosine oxidase” value is listed as not above 1.5 times.

B1: Arthrobacter sp. TE1826 sarcosine oxidase (SEQ ID NO:1) variant SAOM5B, V94G, E250Q, K89R (Arthrobacter sp. TE1826; E250Q/K89R/V94G) (protein)
chain: MSIKKDYDVIVVGAGSMGMAAGYYLSKQGVKTLLVDSFHPPHTNGSHHGDTRIIRHAYGEGREYVPFALRAQELWYELEKETHHKIFTRTGVLGFGPKGEAPFVAETMEAAKEHSLDVDLLEGSEINKRWPGVTVPENYNAIFEKNSGVLFSENCIRAYRELAEANGAKVLTYTPVEDFEIAEDFVKIQTAYGSFTASKLIVSMGAWNSKLLSKLNIEIPLQPYRQVVGFFECDEKKYSNTHGYPAFMVQVPTGIYYGFPSFGGCGLKIGYHTYGQKIDPDTINREFGIYPEDEGNIRKFLETYMPGATGELKSGDVCMYTKTPDEHFVIDLHPQFSNVAIAAGFSGHGFKFSSVVGETLSQLAVTGKTEHDISIFSINRPALKQKETI
As to B1, the Km in [2] was 3.3 mM mM.

B2: Arthrobacter sp. TE1826 sarcosine oxidase (SEQ ID NO:1) variant SAOM2B, V94G (Arthrobacter sp. TE1826; V94G) (protein)
chain: B1 chain with R89K, Q250E
For the molecule B2, the Km in data set [3] worked out at 4.1 mM mM.

B3: Arthrobacter sp. TE1826 sarcosine oxidase, wild type (unmodified), SEQ ID NO:1 (Arthrobacter sp. TE1826) (protein)
chain: B1 chain with R89K, G94V, Q250E
Consider B3, for which the Km in data set [4] worked out at 3.4 mM mM.

B4: Arthrobacter sp. TE1826 sarcosine oxidase (SEQ ID NO:1) variant SAOM3B, K322R (Arthrobacter sp. TE1826; K322R) (protein)
chain: B1 chain with R89K, G94V, Q250E, K322R
Consider B4, for which the Km in data set [5] worked out at 4.7 mM mM.

B5: Arthrobacter sp. TE1826 sarcosine oxidase (SEQ ID NO:1) variant SAOM1B, K89R (Arthrobacter sp. TE1826; K89R) (protein)
chain: B1 chain with G94V, Q250E
For B5, the Km in [6] was 3.4 mM mM.

B6: Arthrobacter sp. TE1826 sarcosine oxidase (SEQ ID NO:1) variant SAOM7B, K89R, V94G, M204A, S213P, E250Q (Arthrobacter sp. TE1826; E250Q/K89R/M204A/S213P/V94G) (protein)
chain: B1 chain with M204A, S213P
Consider B6, for which the Km in data set [7] came to 3.4 mM mM.

B7: Arthrobacter sp. TE1826 sarcosine oxidase (SEQ ID NO:1) variant SAOM8B, K89R, V94G, N166K, M204A, S213P, E250Q (Arthrobacter sp. TE1826; … (protein)
chain: B1 chain with N166K, M204A, S213P
In the case of B7, the Km in data set [8] was 3.4 mM mM.

B8: Arthrobacter sp. TE1826 sarcosine oxidase (SEQ ID NO:1) variant SAOM4B, V94G, E250Q (Arthrobacter sp. TE1826; E250Q/V94G) (protein)
chain: B1 chain with R89K
Take B8: the Km in data set [9] was 3.4 mM mM.

B9: Arthrobacter sp. TE1826 sarcosine oxidase (SEQ ID NO:1) variant SAOM6B, K89R, V94G, S213P, E250Q (Arthrobacter sp. TE1826; E250Q/K89R/S213P/V94G) (protein)
chain: B1 chain with S213P
On to B9, for which the Km in [10] is reported as 3.5 mM mM.
